Assay results published in publication doi:10.1101/2025.11.16.688667.

Molecular target: Rabbit skeletal actin (actin filaments) (rabbit) (UniProt P68135)
Assay: high-speed atomic force microscopy

Recombinant human alpha-actinin-1 ABD-E235K (from UniProt P12814 1-892) (domain or fragment)
dwell time at 1 uM ABD-E235K: 0.39 s
dwell time at 2 uM ABD-E235K: 0.4 s
dwell time at 3 uM ABD-E235K: 0.51 s
